In the supplement of paper PMC9170038:

System: MS2 coat protein
Test: apparent KD of MS2 coat protein; designed switch direction (-1 OFF switch, 1 ON switch): -1; higher = weaker reporter binding
Method in brief: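 The reported apparent KD is a per-design median over clusters, from curve fits of normalised cluster fluorescence. Protein titrations used SNAP-549-labelled MS2 coat protein, doubled from 0.7 or 1.5 nM to 3 µM, in Tris-HCl pH 7.5 buffer with KCl, MgCl2, BSA, DTT, tRNA and Tween-20, with no input, 200 uM small-molecule ligand, or an oligonucleotide input. The RNA switches were transcribed on Illumina chips by stalled E. coli RNA polymerase.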

[1] = Eterna round: R95, input ligand: microRNA oligo, concentration not stated
[2] = input ligand: microRNA oligo, concentration not stated
[3] = Eterna round: R95, input ligand: FMN 200 uM
[4] = Eterna round: R95, input ligand: none

Row | Sequence | apparent KD of MS2 coat protein [1] | apparent KD of MS2 coat protein (input ligand: FMN 200 uM) | apparent KD of MS2 coat protein (input ligand: none) | apparent KD of MS2 coat protein [2] | apparent KD of MS2 coat protein [3] | apparent KD of MS2 coat protein [4]
1 | CCAGCGUAUGUGAGGAUAUGCUGGUCCUUGGAUCAGCAGAAGGCACAUGAGGAUCACCCAUGUAGAGACGUUGG [JL bmx4 3.43] (puzzle: Brourd's mod of Exclusion 4) | 0.0216 µM |  |  |  |  | 
2 | CAGCUGAAAGUCAGGAUAUCUAGAGCGAUAGCUCUAGAGAAGGGACAUGAGGAUCACCCAUGUGAUCACAGCUG [BmEx4/4-A4] (Eterna round: R97, puzzle: Brourd's mod of Exclusion 4) |  | 0.408 µM | 1.98 µM |  |  | 
3 | GGAAACCGAGGAUAUCAGUACACGCACAUGAGGAUCACCCAUGUGCUCCUGGGUGCUGUCUGAGAAGGCGGUGAGA [Quan] (Eterna round: R97, puzzle: Exclusion 5) |  | 0.648 µM | 1.62 µM |  |  | 
4 | UUUGAUAGCACAGGAUAUUGUCAUUUGAGUUGUCAAGAAGGGUGUACAUGAGGAUCACCCAUGUAAUGGUUGCCUCGCUGACUU [JR_ExcNG1_Sub007] (Eterna round: R96, puzzle: Exclusion NG 1) |  |  |  | 0.105 µM |  | 
5 | UUGUCGCAUGUAGGAUAUGUAUGUUAUUAUCAUACAGAAGGACAUGAGGAUCACCCAUGUGUAUUAUUAUUAUAUGUUACAUAU [MOD of Hoglahoo's a different Title] (Eterna round: R96, puzzle: Exclusion NG 1) |  |  |  | 0.014 µM |  | 
6 | ACAUGAGGAUCACCCAUGUGACCACAAUGGCUGAUGUAACAACAGGAUAUGCGUGAAUAUCUAACGCAGAAGGGUUUUGACUGG [Deportation 59 - Jieux - Exclusion NG 3] (Eterna round: R96, puzzle: Exclusion NG 3) |  | 0.0845 µM | 0.0911 µM | 0.0715 µM |  | 
7 | UUAUAGUAUGUAGGAUAUCGGUCAGUUUCUGAUCGAGAAGGACAUGAGGAUCACCCAUGUAAGGCUACCGGUUUCUGGUGGCCU [JL ENG1 3.52] (Eterna round: R96, puzzle: Exclusion NG 1) |  | 0.0944 µM | 0.0209 µM | 0.0185 µM |  | 
8 | UUAUUAAAUGUAGGAUAUGCAUAUUAUUAUUAUGCAGAAGGACAUGAGGAUCACCCAUGUAUAUUAUUAUUAUAUAUUAUAUAU [Title] (Eterna round: R96, puzzle: Exclusion NG 1) |  |  |  | 0.0265 µM |  | 
9 | UAGAUGCUCAGGGAGUGUGACAUGAGGAUCACCCAUGUGGUGGUAGGGAACAAGCUUUUUGCACGUACUUAUGAGUA [JR_SV3TOV1_Sub007] (Eterna round: R96, puzzle: Sensor v3, turn-off variant 1) |  | 0.435 µM | 0.497 µM | 0.148 µM |  | 
10 | AAAUUGGUAGAGGAUAUUGUACAGGAAACGGUGCGAGAAGGUUGCACAUGAGGAUCACCCAUGUUAAGUUGCGA [EX6 #46] (Eterna round: R97, puzzle: Exclusion 6) |  | 0.0399 µM | 0.0257 µM |  |  | 
11 | AACCGUGCGGAGGAUAUUGAUAUCCCAGUCUAUCAAGAAGGCUGCACAUGAGGAUCACCCAUGUGAUCCGUGCU [Riri] (Eterna round: R96, puzzle: Exclusion 6) |  | 0.201 µM | 0.0251 µM | 0.0207 µM |  | 
12 | UACAUGAGGAUCACCCAUGUUUUGUCGUGUAUGGUAUUUAUCUAGGAUAUCAAUGAAUUUAUUUAUGAGAAGGAGAAUAUUAAU [JMF's solution 37] (Eterna round: R96, puzzle: Exclusion NG 3) |  |  |  | 0.0307 µM |  | 
13 | CCAUCGAGUGUGAGGAUAUGCUGGUCCAUAGAUCAGCAGAAGGCACAUGAGGAUCACCCAUGUGGAGACGGUGG [Mat - Exclusion 4 - JL Mod - D78] (puzzle: Brourd's mod of Exclusion 4) | 0.0344 µM |  |  |  | 0.418 µM | 0.0366 µM
14 | GGAAAACAUGAGGAUCACCCAUGUAAGGAUAUGCAAAAGGAUAUAGAAGGAAAAAAAAGCAGAAGGUACAAAGG [salish99-ex1-21] (Eterna round: R96, puzzle: Exclusion 1) |  |  |  | 0.034 µM |  | 
15 | AAUAUGUGAGGAUAUUAGUUGUACGUCAAUAGACGUAUAAGUGAGAAGGCACAUGAGGAUCACCCAUGUUCCUG [Omei Ex4 Mod of Mat's R95 mod of Omei v3] (Eterna round: R97, puzzle: Exclusion 4) |  | 0.0982 µM | 0.0237 µM |  |  | 
16 | ACAAUUAUGACAGGAUAUAGUUUUUGUUGGUCACUAGAAGGGUCUAUGCACAUGAGGAUCACCCAUGUUCUUUUUAUAUGCGAU [JR_ExcNG1_Sub018] (Eterna round: R96, puzzle: Exclusion NG 1) |  | 0.0318 µM | 0.0444 µM | 0.0362 µM |  | 
17 | CAUACUCAAGUCAGGAUAUGCAGUCGAAUACGGGUGUAGAAGGGACAUGAGGAUCACCCAUGUAGAGAGUAAAG [EX-4 Malc #21] (puzzle: Brourd's mod of Exclusion 4) | 0.0368 µM |  |  |  | 0.0998 µM | 0.0511 µM

Row | Sequence | apparent KD of MS2 coat protein [1] | apparent KD of MS2 coat protein (input ligand: FMN 200 uM) | apparent KD of MS2 coat protein (input ligand: none) | apparent KD of MS2 coat protein [2] | apparent KD of MS2 coat protein [3] | apparent KD of MS2 coat protein [4]
18 | CAGUACUGAGGAUAUACAUGAGGAUCACCCAUGUAAUAAUCGUAGGAAACUACGAUAUGUAGAAGGCAGUACUG [Eli x3 4.04] (Eterna round: R97, puzzle: Exclusion 3) |  | 0.016 µM | 0.0131 µM |  |  | 
19 | AGUACUGACACGUCGGUGUUAGUACAAUAAGCUUGUGAAACAUGAGGAUCACCCAUGUCCUCAUAAGCUCGUCUUAU [salish99_TOv2_r3_081] (Eterna round: R96, puzzle: Sensor v3, turn-off variant 2) |  | 0.0151 µM | 0.0172 µM | 0.481 µM |  | 
20 | GUCCUACAUGAGGAUCACCCAUGUAAGGAUAUGCUAGCGGUCGGCUGACUGACUGCUAGCAGAAGGUACAUGAU (puzzle: Exclusion 1) | 0.0156 µM |  |  |  |  | 
21 | UUAUUGUUAGAGGAUAUAUUAAGGUAUGCUUUGAUAGAAGGCUAUACAUGAGGAUCACCCAUGUUUUUUGGGAU [JR_Ex6_Sub076] (Eterna round: R97, puzzle: Exclusion 6) |  | 0.654 µM | 0.328 µM |  |  | 
22 | GGUCAGAUGGUAGGAUAUCCAUAUCGAGUGACCCUUUCAUAACAUGAGGAUCACCCAUGUCGGUGGGAGAAGGGUCGUACGGCG [salish99_ExNG02_R04_020] (Eterna round: R96, puzzle: Exclusion NG 2) |  | 0.0213 µM | 0.0236 µM | 0.0164 µM |  | 
23 | GUCCUGCAGCUUUGCUGUAGGCGUACAUGAGGAUCACCCAUGUAGGAUAUGGUAGGCUUUGCUUACUAGAAGGAUAGAGUGAUC [JL EXNG3 1.28] (Eterna round: R96, puzzle: Exclusion NG 3) |  | 0.0431 µM | 0.0384 µM | 0.00708 µM |  | 
24 | CUUAGCCUAAAAUCACGCAAGCUUUUUACUUGUCUUAAGACAUGAGGAUCACCCAUGUCCGGGCUGAACUUAUGGAA [Zaortequ] (puzzle: Sensor v3, turn-off variant 2) | 0.269 µM |  |  |  | 0.0212 µM | 0.0214 µM
25 | AAUGAUUGACGAGGAUAUUGUGUUAGAUCACGACGAGAAGGCGUUUGUCACAUGAGGAUCACCCAUGUGAGCCUUGUGGAUAGA [Ex NG1 #76] (Eterna round: R96, puzzle: Exclusion NG 1) |  | 0.0566 µM | 0.0215 µM | 0.0156 µM |  | 
26 | GAAUACAGAGGAUAUGCGUAAUAGGUAGUAAGAUAUAUAUGACAUGAGGAUCACCCAUGUAGAAGGCUGAGAUA [EX2 #1] (Eterna round: R97, puzzle: Exclusion 2) |  | 0.0269 µM | 0.0305 µM |  |  | 
27 | AAUGUCUGAGGAUAUCGAUUAGUGUACAUGAGGAUCACCCAUGUUUUUAUUUGUAUAUUACGAGAAGGCAGUGGAA [JR_E5_Sub087] (puzzle: Exclusion 5) | 0.0191 µM |  |  |  | 0.0206 µM | 0.0172 µM
28 | ACAUGAGGAUCACCCAUGUGACAAUAAUGGCUGAUACAGAGACAGGAUAUAGGUGCAUAUCUAACCUAGAAGGGUCAUGACUGG [Deportation 72 - Jieux - Exclusion NG 3] (Eterna round: R96, puzzle: Exclusion NG 3) |  | 0.0291 µM | 0.0366 µM | 0.0306 µM |  | 
29 | GUUAACGAAGAGGAUAUAUGAUAUCAAAGCUUCAUAGAAGGCUUCACAUGAGGAUCACCCAUGUGAUCUUCAAU [jl-ex6-4.08 ViennaUCT mod] (Eterna round: R97, puzzle: Exclusion 6) |  | 0.232 µM | 0.0426 µM |  |  | 
30 | CAUGUGUAAGGAUAUGACAAUGGUAUCGAAAGAUACCAUUGUCAGAAGGUACAUGAGGAUCACCCAUGUAGAUC [Ex4-3: 19] (puzzle: Exclusion 4) | 0.0608 µM |  |  |  | 0.342 µM | 0.0863 µM
31 | AGCUAGUCAGGAUAUUCUAAUAAUUACAUGAGGAUCACCCAUGUGAAUAGACAAGGGUGUGAAGAAGGGACUAGCG [Omei Ex5 A5] (Eterna round: R97, puzzle: Exclusion 5) |  | 0.0583 µM | 0.366 µM |  |  | 
32 | GUGUACGGAGGAUAUGUAUGGGCAGGCUGACCUGCAGCUUCACAUGAGGAUCACCCAUGUAGAAGGCUGUGCAC [JL-ex2-2.09 Brourd mod] (puzzle: Exclusion 2) | 0.0107 µM |  |  |  |  | 
33 | GGGAAACAUGAGGAUCACCCAUGUGAGGAUAUGAAAAAGAAAAGAAAAGAAAGAAGAAUCAGAAGGCACAAAGG [salish99-ex1_r3_079] (puzzle: Exclusion 1) | 0.0362 µM |  |  |  | 0.0755 µM | 0.0549 µM
34 | AUUAAUUGUCAGAUGGGUGACAUGAGGAUCACCCAUGUCACAAGCUUUUUGCUCGUCUUAUAAUUAACCCAUCUGAC [Stov1/11-A2] (Eterna round: R97, puzzle: Sensor, turn-off variant 1) |  | 0.0141 µM | 0.0133 µM |  |  | 
